The record followed here is the domain aggregation screens of Martell et al. (2025).

A short description of the data set: soluble fraction after stress (log2 fold change); higher = more stays soluble; pooled small domains, quantitative proteomics. The conditions noted are these: stress: 50 degC. In outline: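 Quantitative proteomics served as the high-throughput read-out for pooled custom libraries of small protein domains. Each was stressed at 50°C. Aggregation propensity is expressed as the base-two log fold change in soluble protein after stress. A higher value means a larger share of the protein remains in solution.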
“HMQGNGKVATELLKDIIASDNLYINAMRMLVMHYNSKGTNQVEMVKLLHNILDLVPDDEYANEILKSAKKA”: the “soluble fraction (log2)” value was -0.327. As for “HMGAARRFEMSEGGSQKFWEVAVEGPALTVRFGKLGTAGTTQTKTLASAEAAAKEADKLVREKTKKGYAP”, the figure is 0.222; as for “HMGGTTLIAKQATVTGDIQFSSNLDIEGRVVGAISVEPGKEAMLHVVEGGSVEGEIRVPSAVINGKVTGDI”, 0.101. For the sequence “HMQSVKTQPLRDWLLAHFDKPYPDDEDKVRLAEASGMTRAQVGNWFINARVRTWRPMVLDLGEEIERESV”, the “soluble fraction (log2)” value is -0.649. For the sequence “HMAAGADEATTVPNVSGDTLNQAIKSLKAEGLGYMLSGAGARVRDQMPEPGAEMTKGSVVMLYMDGDAEVD”, the “soluble fraction (log2)” value was -0.0304.

“HMFPELDEEEQKITKLLQAQNDLPANIIAVKTALNIGTTQAKLFSLEMKGVVKPYAGGFYHLL”: the “soluble fraction (log2)” value is -0.25.

For the sequence “HMSDKPRYYINGNTLFISDKSVKKVLFSDLSGRSILHTTETAINIATFRGAHILTVIYTDGSTKSEVIF”, the “soluble fraction (log2)” value was -1.29. Turning to “HMKERVSWDERLERFAKHITENESLPYPSSKEYAWFEENKALYDAGELEPVRAQSFAFLLKIMRRMNL”, the “soluble fraction (log2)” value was -0.491. On to “HMQQVLGDVNEDDKVDFLDAIVVLRHDAEIIQLTDNQMKAAEVNKDGKVDFLDAIMILRYDAEIIGS”, for which the “soluble fraction (log2)” value is -0.0952. As for “HMAQTSAELIIEYLKRNDGFMELTDKSPADEIYETFGISKKNFKMAVGSLYKNRVIEIGQNGIRLVE”, the “soluble fraction (log2)” value is -0.216. As for “HMHGESISVPDLRGQKMERMPAFLADKHLQFKVIDSLFDLEKNPGTVLEQDPAPNSKVKEGRTIYLTVNAQ”, the “soluble fraction (log2)” value is -0.022. As for “HMKNIINLVIDGELHGKRIDAVIAQKNDSLSRTRIKNLVINGNLSINDEIVSDPSKKIYKDDKVSLTIPLP”, the figure is -0.058. For the sequence “HMELARLRPELDGNDIMRILGVPPGPVVGRAYTYLLELRINQGELGRERVTQLLLDWAAAEGISA”, the “soluble fraction (log2)” value was -2.02. The value for “HMTKASYKITTPSGVNVREGAGKRYAVRKAYPKGKTVTVTQTKEVNGNLWGKTSDGWFAIKYQGAVYASA” was -0.97; that for “HMTTQTGTVKWFNEGKGFGFIAPDDGGKDLFAHFKEIQGTGFKTLAENQRVEFEVTQGQKGPQASKI” was -0.0807. As for “HMLYITEIQKKIMDAFLVVANESNSGTRITMNEIANKVRMTPQAIYRKHFKSVIEISDTIRD”, the figure is -0.531; as for “HMPMTRILFLPDDRTILQFDSAEPAEDLVSAVNAGRWLPPEPYRSGFGLGLPENRLRASRQGALVVVMLS”, -0.967. Turning to “HMHKKQEVQDSIDAAEEFMRASGVPAELITSKRAYAVKAIYADAVDKGTPDEIVKKDGMIVALISQMRS”, the “soluble fraction (log2)” value came to 0.267. Consider “HMVLENLKKFIDSKGISVSAFEKSIGMSNNSFRKSLNSGGHIGSDKLENILKIYPELNPVWLLQGEGEML”, for which the “soluble fraction (log2)” value was -0.27.

“HMKSERHALILSLIEKKNVETQEDLAELLKERGVAVTQATVSRDIKELRLIKVLSETGGYKYATVDKAE”: the “soluble fraction (log2)” value was -0.103. For the sequence “HMLMYAQDEKEEASNNIPYRLLHMSFTKEQKAELQRAMDVRVPKDIILSYFYPDTPVARMMEIRRQYESA”, the “soluble fraction (log2)” value is -0.472. Take “HMTYVSVSNYIGTNVDKAKGELESQGLVVLLEEQKTEDKSQDGMVLKQTIEGGTKVSSGSRITLIYGRYT”: the “soluble fraction (log2)” value is 0.197. As to “HMEPPPSYSALLKQISSGKVKELQLVPARREVIVTYPDGRSATVAILANDQQILRTAEAAGTPLLVK”, the “soluble fraction (log2)” value worked out at 0.207. In the case of “HMREITVEELYELEGIRIVGTIPGISAWVAESGRQMVFLVGQKVKGHDLLEVGESRVVLRKGDSVVNVLL”, the “soluble fraction (log2)” value is -0.0622.

Consider “HMYDKKVFRLLFILNQLDSRKKVSTGELAKEFNVSPRTVQRDIVLLNTTGFPIISLEKGYHSFMEGFSLK”, for which the “soluble fraction (log2)” value is -1.12.

For the sequence “HMALSTRERMSFVLEVLKEKEFIPFVDLFSPEEGRAGVVVTFLALMELMKDSLIEIVQTKNFGEIHVRARL”, the “soluble fraction (log2)” value was -0.218. With “HMENVLFVNVLSMTVRELAEMMKIPVNKIIQDSFSKGIMMNPNQRLEYDNFAELAKKYGITVKI”, the “soluble fraction (log2)” value is -0.879. The value for “HMRRFEFSDGSSNKFWQITRDGTSLTVTFGKIGTAGQTQLKELATEAAAIAEHDKLVKEKTKKGYAEVG” was -0.206. As for “HMAEWLFDARKIPDEVMNYLRRIAVQAIEEKHYSPELVADLLGISRSSIYDWLNWYRNGGEEDLDTRKA”, the “soluble fraction (log2)” value is -0.613. “HMVVVMNADAEADEIKRVKWNLEQMLFRTQVIYGVKRIVIGAIGDQREVDLSEIEQMPKVDKIVRISK”: the “soluble fraction (log2)” value was -1.4. With “HMETIGKRVRAARQELGLTMKQLHEQTGLSTGNISDIENDRNTPSVSSLVALGRALRRSLDWLLTGEE”, the “soluble fraction (log2)” value was -0.252. With “HMASMNPVWLEFPNIPWGSAGWRMGWGEDYMRRWAKWYISLAEVERQSYKSDWPEPQEWEGFYAFMEHGT”, the “soluble fraction (log2)” value is -1.63.

As to “HMTLRDRDQALEELWGQLADVPMDSETERLLEPFMGWGVGVSRDEIWHWFDRRHSKGIGHLLYS”, the “soluble fraction (log2)” value was -1.55. In the case of “HMSKPIREVAYETLKNAIVTGEIPAGSRIVETEYAERMHISRTPLREALRKLERDGLVEYVVRRGVVVRAF”, the “soluble fraction (log2)” value is -1.54. As for “HMGSPVTAVMNRVLNETERQIVTLHVISGFKHREIAELLEKPVGTVLWTYNNALGKMRKAMQRE”, the figure is -1.33; as for “HMEIMELPEYVVRSGSGLDAFREKWDLWDQGLMYDLKDKRAVFPIFIDGVMIDAVGRALAGAEPKWLRYTG”, -0.165; as for “HMIDHKVIRSFRQKRNMTLQELAQKANLSVSYLSEIELGKKQPSLETLDKLSKALNISLEGL”, -0.116. Regarding “HMRRGFGYVRKLPSGRWQASFVGPDLARHSAPHTFETKGDAEGWLGRRQADVVAGEWRPPVP”, the “soluble fraction (log2)” value is 0.205. The value for “HMIDNFFTIRFNYSKINEVIRLLKEFNGEIFNKNYDKNEYIIEFSIPKKDAALLISKLKNITGLTIEQ” was -0.00473. The value for “HMPSLGGLLALLKRNRKPDAMEALDRLISKEDRPETAEALENIREKVRNMQMREAEGLLLALMEP” was -0.0372; that for “HMKLSLKTQVKEYLLSYIRDKKLQPGDRLLTQRELAEMLHTSQKVAQMALNSLEEEGIIIRRLGSGSFLAR” was -1.11.

Regarding “HMEEFLSFIADILEVDKNTLTLETSQDDVETWDSLMQLRLLGEIEAKYGVMIPMERISTIKKLNDFYQYIK”, the “soluble fraction (log2)” value was -0.513. For “HMHFENEETFVLPLVREGFSEQQQLEMVDRLLFDANTDNPRWIIDWMASELPSTQRELLLDLEKRLAEVRS”, the “soluble fraction (log2)” value is -0.117. As for “HMEIPRYRLIGADGGRMVDLGEGQGAIPPVDVKRGMIDMPGLGKGYYTADGKSAVITNADGSKTRVL”, the “soluble fraction (log2)” value was -0.034. As for “HMINEEELLKIENIKRKYPDSKAALMPVLYFFQEKYGFISDDSIKEISQLLNISEVDIKGVVSFYEMFHEK”, the “soluble fraction (log2)” value is -0.59. With “HMYTPDYLSDLMVRMAHHSTAIEGNTLTQGETKSVLVDGYIPRAMDMRELNEVLNYKAFMTFLVE”, the “soluble fraction (log2)” value was -0.0969. The value for “HMINKDNLIEEILKFINTKIADISSNNPLFDIVAKPYISKVVTNNVSKLDKALSLIADDKGMVDADGLLT” was -0.292; that for “HMSTYTETETAYLKAYSAAGVDGKISDSERGILNMTAEALGITVERTTELEAMFNLTVEEEA” was -0.118. With “HMSAITLDQARAIALDHAGISEGDATFVKEQTGTSSYEIEFYSGSNEYDYEIDKATGAILNVDR”, the “soluble fraction (log2)” value stood at 0.0269.

As for “HMIKNDIGKFIKLYRETHQWSQRELAEHLGVSQRNVSYYEKGERIPPADVLKKLSTLFDVPVDVLLGLK”, the “soluble fraction (log2)” value was -0.43. The value for “HMDDKLKKLEEVFEMQEGTLTPDMRLDELEEWDSMTRLSLIVMMEDDYGKKVKRSEVMNYTTVQDIVDSME” was -0.5. Take “HMTKQRSIILDLLKANQDRHLTAEEMLELLNQNHTPVSKATLYRYLDMLVSQNAVRKFIIDDQPSAGYQYL”: the “soluble fraction (log2)” value is -1.34.

Turning to “HMASVLTAKLSEREVDVLNLLARGFTNADIAAQLHLSEGTVRNHVSTIFAKLDVNDRTQAAVIAIRHGL”, the “soluble fraction (log2)” value was -0.775. On to “HMLRKTTDLDAIRSVAKDVIDQNPKAVEDYVGGKESAIGFLLGQVMRATKGTADANTVRELLKEILDS”, for which the “soluble fraction (log2)” value was 0.311. For the sequence “HMVEMSNMELVREQYFQNLIYNVGDWVKDSKTEITGEVVKRGTNYLTIVQEDFTLHKVWLEDAESME”, the “soluble fraction (log2)” value is -0.581.

For “HMGPVPLASAADMEKFYSHLQQVLDEVDFKDRTGSGHLMARLRRLFQRTVLDQNEINILRGILMAVQGRR”, the “soluble fraction (log2)” value is -2.85. As for “HMTDGYAMRLERLNSLEEYVLNKGTVSLEDLAERFGVSINTIRRDLNELISRGQIKKVYGGVSSLHD”, the figure is 0.0904; as for “HMNEFNEVVPDSLEGERLDRLLAFIGNISRSEASNIIKGGEVLINGKVVTRPSFKVTLGNRVEFSIRD”, -0.387. On to “HMEVVVPDFEKIYIRDLDKFVEGHNVRYEIVDSIYNLEKDKGTVVDQDPEPGSKVKHGRVIYLTVNAML”, for which the “soluble fraction (log2)” value was -0.207.

In the case of “HMLKDQSIAQLEKNLDDLKGLMRKMFGSSDVPKITKMISDIESSLANFNQSKANKLIVQTTNYISSKL”, the “soluble fraction (log2)” value is -0.36. “HMKSLLTARQLEVFEIARNKGYWTTPRKISLVELSKLLDISKSTLSVLLHSIEGKVMEEFYEEIRQ”: the “soluble fraction (log2)” value was -1.81. “HMQKLSPKQRRGNIIELIKENPTITAKNISTIFNLNQRTIERDLAKLTEEGYIKYEGSSKDGKWVFL”: the “soluble fraction (log2)” value was determined as 0.087. As for “HMAHTGGNTLTREKAVSVRSASDALLFEIHWNETPREDILSTREEKVDGKTYSIITIRTGKGREDHYYLLS”, the figure is -0.29; as for “HMVEPLIVRNFSINYADIDKLETKIKDYISNSDKSGVNRGRVTSDTRTNMLIVTETASKLAQVEQLLKALD”, -0.181; as for “HMYSQEEKRYMEIMEIKPQELSAENLKKQYKKLVKKYHPDLHQDDKQAAEEKFKQLTNAYQVLMRRF”, 0.0779. On to “HMFIQLSQEEKKVVEGLQQRSKTHLDALALEVGQNISKTAAMLMELEMKGVVRALPGKYYEL”, for which the “soluble fraction (log2)” value was -0.888. On to “HMQLEPLITSVIPVNFAKAGEVATTIKGKEVGLVSDRGSITAESRTNVLIVKDIKKNVDDISAMVKRLD”, for which the “soluble fraction (log2)” value came to 0.123. As for “HMGVTDSSYNVLRRQILEMLSVQQRTPADLARLIEADKEEIAAVIRFLLDKGEIQMEDGMLQTK”, the figure is 0.0683.
